Test in all cases: cell-based or functional assay
The target in one experiment is human GLP-1 receptor (human, UniProt P43220 24-463).
The target in another experiment is human GCG receptor (human, UniProt P47871 26-477).
The target of another experiment is T1, human GIP receptor (human, UniProt P48546 22-466).
T1 sequence (looked up): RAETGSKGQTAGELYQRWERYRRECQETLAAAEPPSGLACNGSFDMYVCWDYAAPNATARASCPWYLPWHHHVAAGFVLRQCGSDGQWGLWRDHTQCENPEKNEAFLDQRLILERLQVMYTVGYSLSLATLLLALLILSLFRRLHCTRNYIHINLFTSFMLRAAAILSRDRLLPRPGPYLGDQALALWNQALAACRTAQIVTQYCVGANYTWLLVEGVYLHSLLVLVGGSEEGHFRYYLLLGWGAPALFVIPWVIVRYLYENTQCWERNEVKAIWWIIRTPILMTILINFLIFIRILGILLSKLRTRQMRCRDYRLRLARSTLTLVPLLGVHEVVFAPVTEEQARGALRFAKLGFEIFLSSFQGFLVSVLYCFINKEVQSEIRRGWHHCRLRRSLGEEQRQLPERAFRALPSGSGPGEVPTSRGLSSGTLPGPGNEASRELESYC

Experimental findings from patent publication US20230118307A1, “THERAPEUTIC USE OF LONG-ACTING CONJUGATE OF TRIPLE AGONIST HAVING ACTIVITIES TO ALL OF GLUCAGON/GLP-1/GIP RECEPTORS FOR LUNG DISEASE” (HANMI PHARM. CO., LTD., priority 2020, published 2023) are described below.

Positions of bridges follow the written chain, without caps; N, C: chain ends. Non-standard residues stand in square brackets, D forms with d. No end group written: not given here. *: point of attachment. Acetyl(2-(4-imidazolyl)) = O=C(Cc1c[nH]cn1)*; Aib = CC(C)(N)C(=O)O

Chain of human GCG receptor (P47871 26-477): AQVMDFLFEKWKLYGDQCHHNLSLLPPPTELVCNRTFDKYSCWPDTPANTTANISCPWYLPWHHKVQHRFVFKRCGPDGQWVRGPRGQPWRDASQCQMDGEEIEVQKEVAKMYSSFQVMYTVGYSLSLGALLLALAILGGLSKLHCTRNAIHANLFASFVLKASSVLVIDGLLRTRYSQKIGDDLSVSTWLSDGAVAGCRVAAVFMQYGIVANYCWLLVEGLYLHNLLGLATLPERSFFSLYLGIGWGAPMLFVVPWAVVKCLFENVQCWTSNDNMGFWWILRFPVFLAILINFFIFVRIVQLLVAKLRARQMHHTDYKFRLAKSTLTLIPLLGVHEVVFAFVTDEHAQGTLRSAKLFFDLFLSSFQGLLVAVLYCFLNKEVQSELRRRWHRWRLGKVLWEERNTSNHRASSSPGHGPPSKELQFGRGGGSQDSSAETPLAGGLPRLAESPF

B1: triple agonist of SEQ ID NO: 100 (peptide)
peptide: Y[Aib]QGTFTSDYSKALDEKAAKEFVQWLLDQHPSSGQPPPSC
modifications: bridge 16-20
Turning to B1, the “In vitro Activity Compared to Native Peptide (%) vs. GLP-1” value with human GLP-1 receptor worked out at 42.2%. For the same molecule, the “In vitro Activity Compared to Native Peptide (%) vs. Glucagon” value with human GCG receptor came out at 12.7%. In the experiment with human GIP receptor, the “In vitro Activity Compared to Native Peptide (%) vs. GIP” value was 118%.

B2: triple agonist of SEQ ID NO: 17 (peptide)
peptide: [Acetyl(2-(4-imidazolyl))]GQGTFTSDLSKQMDEERAREFIEWLLAQKPSSGAPPPSHG
Consider B2, for which the “In vitro Activity Compared to Native Peptide (%) vs. GLP-1” value in the experiment with human GLP-1 receptor was determined as 0.2%. Also, the “In vitro Activity Compared to Native Peptide (%) vs. Glucagon” value with human GCG receptor is below 0.1%. Also, in the experiment with human GIP receptor, the “In vitro Activity Compared to Native Peptide (%) vs. GIP” value is below 0.1%.

B3: triple agonist of SEQ ID NO: 18 (peptide)
peptide: [Acetyl(2-(4-imidazolyl))]GQGTFTSDLSKQMDSERAREFIEWLKNTGPSSGAPPPSHG
With B3, the “In vitro Activity Compared to Native Peptide (%) vs. GLP-1” value with human GLP-1 receptor is below 0.1%. For the same molecule, the “In vitro Activity Compared to Native Peptide (%) vs. Glucagon” value with human GCG receptor was below 0.1%. Moreover, the “In vitro Activity Compared to Native Peptide (%) vs. GIP” value with human GIP receptor is below 0.1%.

B4: triple agonist of SEQ ID NO: 2 (peptide)
peptide: H[Aib]QGTFTSDVSSYLDGQAQKEFIAWLVKGC
Consider B4, for which the “In vitro Activity Compared to Native Peptide (%) vs. GLP-1” value in the experiment with human GLP-1 receptor amounted to 5.9%. Further, the “In vitro Activity Compared to Native Peptide (%) vs. Glucagon” value in the experiment with human GCG receptor is below 0.1%. In addition, the “In vitro Activity Compared to Native Peptide (%) vs. GIP” value with human GIP receptor is below 0.1%.

B5: triple agonist of SEQ ID NO: 13 (peptide)
peptide: [Acetyl(2-(4-imidazolyl))]GEGTFISDYSIQLDEIAVQDFVEWLLAQKPSSGAPPPSHG
As to B5, the “In vitro Activity Compared to Native Peptide (%) vs. GLP-1” value with human GLP-1 receptor is below 0.1%. Also, in the experiment with human GCG receptor, the “In vitro Activity Compared to Native Peptide (%) vs. Glucagon” value was below 0.1%. Further, the “In vitro Activity Compared to Native Peptide (%) vs. GIP” value with human GIP receptor was below 0.1%.

B6: triple agonist of SEQ ID NO: 101 (peptide)
peptide: Y[Aib]QGTFTSDYSKALDEKAAKEFVNWLLDQHPSSGQPPPSC
modifications: bridge 16-20
For B6, the “In vitro Activity Compared to Native Peptide (%) vs. GLP-1” value with human GLP-1 receptor amounted to 23.2%. Besides, the “In vitro Activity Compared to Native Peptide (%) vs. Glucagon” value with human GCG receptor was 13.9%. The “In vitro Activity Compared to Native Peptide (%) vs. GIP” value in the experiment with human GIP receptor is 40.1%.

B7: triple agonist of SEQ ID NO: 12 (peptide)
peptide: [Acetyl(2-(4-imidazolyl))]GEGTFISDLSKYMDEQAVQLFVEWLMAGGPSSGAPPPSHG
Take B7: the “In vitro Activity Compared to Native Peptide (%) vs. GLP-1” value with human GLP-1 receptor was 0.4%. For the same molecule, the “In vitro Activity Compared to Native Peptide (%) vs. Glucagon” value with human GCG receptor is below 0.1%. Also, the “In vitro Activity Compared to Native Peptide (%) vs. GIP” value with human GIP receptor was below 0.1%.

B8: triple agonist of SEQ ID NO: 16 (peptide)
peptide: [Acetyl(2-(4-imidazolyl))]GQGTFTSDLSKQMDSEAQQLFIEWLKNGGPSSGAPPPSHG
For B8, the “In vitro Activity Compared to Native Peptide (%) vs. GLP-1” value in the experiment with human GLP-1 receptor is 2.1%. The “In vitro Activity Compared to Native Peptide (%) vs. Glucagon” value with human GCG receptor was below 0.1%. The “In vitro Activity Compared to Native Peptide (%) vs. GIP” value in the experiment with human GIP receptor is below 0.1%.

B9: triple agonist of SEQ ID NO: 102 (peptide)
peptide: Y[Aib]QGTFTSDYSKALDEKAAKDFVNWLLDQHPSSGQPPPSC
modifications: bridge 16-20
As to B9, the “In vitro Activity Compared to Native Peptide (%) vs. GLP-1” value with human GLP-1 receptor turned out to be 23.3%. For the same molecule, the “In vitro Activity Compared to Native Peptide (%) vs. Glucagon” value in the experiment with human GCG receptor was determined as 29.5%. Also, the “In vitro Activity Compared to Native Peptide (%) vs. GIP” value with human GIP receptor was 58%.

B10: triple agonist of SEQ ID NO: 11 (peptide)
peptide: [Acetyl(2-(4-imidazolyl))]GEGTFTSDLSKYLDSRRQQLFVQWLKAGGPSSGAPPPSHG
With B10, the “In vitro Activity Compared to Native Peptide (%) vs. GLP-1” value with human GLP-1 receptor was 1.4%. Also, the “In vitro Activity Compared to Native Peptide (%) vs. Glucagon” value with human GCG receptor was below 0.1%. In the experiment with human GIP receptor, the “In vitro Activity Compared to Native Peptide (%) vs. GIP” value is below 0.1%.

B11: triple agonist of SEQ ID NO: 14 (peptide)
peptide: [Acetyl(2-(4-imidazolyl))]GQGTFTSDYSIQLDEIAVRDFVEWLKNGGPSSGAPPPSHG
As for B11, the “In vitro Activity Compared to Native Peptide (%) vs. GLP-1” value with human GLP-1 receptor was determined as 28%. Besides, in the experiment with human GCG receptor, the “In vitro Activity Compared to Native Peptide (%) vs. Glucagon” value is below 0.1%. The “In vitro Activity Compared to Native Peptide (%) vs. GIP” value in the experiment with human GIP receptor is below 0.1%.
